Test results taken from the RNAGym collection of RNA variant scans (doi:10.7554/elife.80360).

B1: HDV Ribozyme (parent)
chain: GGCCGGCAUGGUCCCAGCCUCCUCGCUGGCGCCGGCUGGGCAACAUUCCGAGGGGACCGUCCCCUCGGUAAUGGCGAAUGGGACCCA

Variants of: B1
Experiment: self-cleavage, relative activity (ratio to wild type); higher = more cleavage; co-transcriptional

Point of comparison: G17A U23G, self-cleavage 0.427. Against it:
- G17U U72G — lower, 0
- G17U G38C — lower, 0.0997
- C18A U69A — lower, 0.19
- G17A C64U — higher, 0.722
- G17A C64A — higher, 0.645
- G17A A78U — lower, 0.242
- G17A A78G — lower, 0.262
- C18A G25C — lower, 0.0405
- C18A G25A — lower, 0.133
- G17C C57G — higher, 0.516
- C18U A83G — lower, 0.356
- C18A G38A — lower, 0.113
- C18G A77G — lower, 0.0755
- C18G A77C — lower, 0.178
- A16U G52C — higher, 0.696
- G17C G59C — lower, 0.243
- G17A A45C — lower, 0.415
- C18G C62G — lower, 0
- G17C U60G — lower, 0.356
- A16U G68U — higher, 1.18
- G17A U20C — lower, 0.268
- G17A U20G — lower, 0.156
- G17A G67C — higher, 0.659
- G17U G55C — higher, 0.453
- G17U G55U — lower, 0.415
- C18A A42G — lower, 0.102
- C18G C32G — lower, 0.107
- C18G U27A — lower, 0.0665
- G17C G29U — lower, 0
- G17C G29A — lower, 0.0437
- C18U C49G — higher, 0.723
- C18U C49A — higher, 0.623
- G17A C24G — lower, 0.0791
- C18U A42C — lower, 0.185
- G17C C84U — lower, 0.326
- G17C C84G — lower, 0.18
- C18A A77C — lower, 0
- G17C G25U — lower, 0.101
- G17A A87U — higher, 0.708
- A16U G55U — higher, 1.09
- A16U G55A — higher, 0.784
- G17A C44U — lower, 0.231
- G17A C44A — lower, 0.306
- G17U G39A — lower, 0.128
- G17U G31C — lower, 0.0361
- G17C C64U — lower, 0.0475
- G17C C64A — lower, 0.314
- G17C A70U — lower, 0.277
- C18G C75A — lower, 0
- C18G C75U — lower, 0.0615
- A16U G80C — lower, 0.145
- A16U G80U — lower, 0.41
- A16U G34C — lower, 0.369
- C18G G52C — lower, 0.0554
- G17A A83C — higher, 0.665
- G17U C84G — higher, 0.439
- C18A C86U — lower, 0.0898
- C18A C86A — lower, 0.106
- G17U U79G — lower, 0.406
- G17U U79A — higher, 0.755
- G17U U79C — higher, 0.584
- G17U C58A — higher, 0.847
- G17U C86G — higher, 0.583
- G17C U46G — lower, 0.0923
- G17A C75G — lower, 0.0773
- G17U C36U — lower, 0.166
- C18U C30U — lower, 0.185
- C18G G28U — lower, 0.0405
- G17U C64G — higher, 0.495
- G17C C62U — lower, 0.405
- C18G G39A — lower, 0
- C18U A56G — higher, 0.719
- C18U A56U — higher, 0.745
- C18U A56C — higher, 0.628
- C18G U47C — lower, 0.185
- C18A A51C — lower, 0.0755
- G17A G55U — higher, 0.762
- G17U G28A — lower, 0.188
- G17A G73U — lower, 0.188
- C18A G40C — lower, 0.162
- G17C G73A — lower, 0.156
- G17C G73U — lower, 0.0852
- G17C G73C — lower, 0.0875
- C18A C84U — lower, 0.0997
- C18G G55A — lower, 0.145
- C18G C64G — lower, 0.156
- C18G C64U — lower, 0.147
- G17A U79G — lower, 0.388
- G17A A43U — lower, 0.237
- G17A C58A — higher, 0.746
- C18A C85G — lower, 0.0475
- G17C C24A — lower, 0.0519
- C18G C66U — lower, 0.166
- C18A C49A — lower, 0.111
- C18A C49G — lower, 0.119
- G17U C48G — higher, 0.482
- C18G U72A — lower, 0
- A16U U69G — higher, 1.16
- G17C U27C — lower, 0
- G17U G54U — higher, 0.546
- G17U G54C — higher, 0.536
- C18G A87U — lower, 0.154
- C18G A87G — lower, 0.12
- G17U U27C — lower, 0.308
- C18A A70U — lower, 0.0898
- C18G C33A — lower, 0
- C18A G34U — lower, 0.0489
- G17A U72C — lower, 0.141
- G17A U72G — lower, 0.378
- G17A G25U — lower, 0.0277
- A16U U65A — higher, 0.831
- A16U U65C — higher, 0.965
- G17C C66A — lower, 0.262
- C18G A71G — lower, 0
- G17C G35A — lower, 0.147
- G17C G35U — lower, 0.0773
- C18A C48G — lower, 0.102
- C18A U23C — lower, 0
- G17A C57G — higher, 0.674
- A16U U79G — higher, 1.13
- C18U A71C — lower, 0.259
- C18U A71U — higher, 0.724
- G17A C86U — higher, 0.885
- G17U A71G — lower, 0.323
- G17A C21G — lower, 0.0415
- G17A C36A — lower, 0.138
- C18U A51G — higher, 0.623
- G17C C49A — higher, 0.467
- G17C C49G — lower, 0.107
- C18A C21U — lower, 0.089
- C18A C21A — lower, 0.125
- A16U U27G — higher, 0.665
- G17A G38U — lower, 0.1
- C18A A87U — lower, 0.126
- G17A G54C — higher, 0.458
- C18A C66G — lower, 0.0639
- C18A C32A — lower, 0.106
- C18A A56G — lower, 0.162
- C18G C57U — lower, 0.237
- C18G C57G — lower, 0.133
- G17U C22A — lower, 0.0831
- A16U U20C — lower, 0.277
- C18G G59C — lower, 0.26
- C18A A78U — lower, 0.128
- C18G C86U — lower, 0.0875
- C18A G28C — lower, 0.095
- A16U G40A — higher, 0.928
- G17U U47A — lower, 0.256
- C18G A43U — lower, 0.189
- C18U C48G — higher, 0.683
- C18U C48U — higher, 0.639
- G17U G34A — lower, 0.13
- G17C G67U — lower, 0.358
- G17C G67A — lower, 0.249
- G17C G28C — lower, 0.125
- G17C G28U — lower, 0.0707
- G17A C30U — higher, 0.986
- C18A G55U — lower, 0.197
- C18A G55C — lower, 0.133
- G17C A87U — lower, 0.171
- G17C A87C — lower, 0.354
- G17U A56G — higher, 0.609
- G17C C58A — lower, 0.388
- G17A C66U — higher, 0.607
- C18U C33A — lower, 0.0354
- C18G A56C — lower, 0.0755
